The results in this text go back to the Human Domainome abundance scans (Beltran et al. 2025).

± gives the uncertainty stated by the source.

The series is described as follows: abundance fitness (aPCA) (normalised: wild type 0, dead -1); higher = more abundant; growth selection in yeast, the domain comes from the species named. Conditions: Homo sapiens.
Take “DnaJ homolog subfamily B member 1 S16M, P25685”: the abundance fitness is -0.258 ± 0.073.
The result for “DnaJ homolog subfamily B member 1 S16N, P25685” reads -0.059 ± 0.1; that for “DnaJ homolog subfamily B member 1 S16P, P25685”, -0.123 ± 0.062; that for “DnaJ homolog subfamily B member 1 S16R, P25685”, -0.158 ± 0.065.
The result for “DnaJ homolog subfamily B member 1 S16T, P25685” reads -0.057 ± 0.092; that for “DnaJ homolog subfamily B member 1 S16V, P25685”, -0.301 ± 0.066.
As to “DnaJ homolog subfamily B member 1 S16Y, P25685”, the abundance fitness is -0.676 ± 0.073.
In the case of “DnaJ homolog subfamily B member 1 S56A, P25685” it was -0.142 ± 0.085; in that of “DnaJ homolog subfamily B member 1 S56C, P25685”, 0.022 ± 0.16; in that of “DnaJ homolog subfamily B member 1 S56D, P25685”, -0.551 ± 0.094.
The result for “DnaJ homolog subfamily B member 1 S56E, P25685” reads -0.496 ± 0.079.
The substance “DnaJ homolog subfamily B member 1 S56F, P25685” came in with an abundance fitness of -0.526 ± 0.12.
In the case of “DnaJ homolog subfamily B member 1 S56G, P25685” it was 0.002 ± 0.079; in that of “DnaJ homolog subfamily B member 1 S56H, P25685”, -0.217 ± 0.16; in that of “DnaJ homolog subfamily B member 1 S56I, P25685”, -0.174 ± 0.36.
In the case of “DnaJ homolog subfamily B member 1 S56K, P25685” it was -0.051 ± 0.17; in that of “DnaJ homolog subfamily B member 1 S56M, P25685”, -0.171 ± 0.095; in that of “DnaJ homolog subfamily B member 1 S56N, P25685”, -0.343 ± 0.15.
On to “DnaJ homolog subfamily B member 1 S56P, P25685”, for which the abundance fitness was -0.99 ± 0.1.
The result for “DnaJ homolog subfamily B member 1 S56Q, P25685” reads -0.25 ± 0.14; that for “DnaJ homolog subfamily B member 1 S56R, P25685”, -0.226 ± 0.091; that for “DnaJ homolog subfamily B member 1 S56T, P25685”, -0.111 ± 0.087.
The result for “DnaJ homolog subfamily B member 1 S56V, P25685” reads -0.071 ± 0.066; that for “DnaJ homolog subfamily B member 1 S56W, P25685”, -0.853 ± 0.11; that for “DnaJ homolog subfamily B member 1 S56Y, P25685”, -0.493 ± 0.11.
In the case of “DnaJ homolog subfamily B member 1 T8A, P25685” it was -0.143 ± 0.079; in that of “DnaJ homolog subfamily B member 1 T8C, P25685”, -0.096 ± 0.094; in that of “DnaJ homolog subfamily B member 1 T8D, P25685”, -0.101 ± 0.083.
Regarding “DnaJ homolog subfamily B member 1 T8E, P25685”, the abundance fitness was -0.239 ± 0.11.
“DnaJ homolog subfamily B member 1 T8F, P25685” displayed an abundance fitness of -0.352 ± 0.17.
The result for “DnaJ homolog subfamily B member 1 T8G, P25685” reads -0.469 ± 0.099.
In the case of “DnaJ homolog subfamily B member 1 T8H, P25685” it was 0.211 ± 0.46.
The result for “DnaJ homolog subfamily B member 1 T8I, P25685” reads 0.036 ± 0.088; that for “DnaJ homolog subfamily B member 1 T8L, P25685”, -0.101 ± 0.071; that for “DnaJ homolog subfamily B member 1 T8M, P25685”, -0.121 ± 0.17.
In turn, “DnaJ homolog subfamily B member 1 T8N, P25685” registered an abundance fitness of -0.303 ± 0.18.
The result for “DnaJ homolog subfamily B member 1 T8P, P25685” reads -0.333 ± 0.067.
As to “DnaJ homolog subfamily B member 1 T8Q, P25685”, the abundance fitness was -0.165 ± 0.12.
The result for “DnaJ homolog subfamily B member 1 T8S, P25685” reads -0.149 ± 0.093; that for “DnaJ homolog subfamily B member 1 T8V, P25685”, -0.106 ± 0.058.
“DnaJ homolog subfamily B member 1 T8W, P25685” returned an abundance fitness of -0.281 ± 0.1.
In the case of “DnaJ homolog subfamily B member 1 T8Y, P25685” it was -0.261 ± 0.05.
The result for “DnaJ homolog subfamily B member 1 V54A, P25685” reads -0.201 ± 0.2; that for “DnaJ homolog subfamily B member 1 V54C, P25685”, 0.063 ± 0.086.
“DnaJ homolog subfamily B member 1 V54D, P25685”: the abundance fitness was -0.419 ± 0.14.
The result for “DnaJ homolog subfamily B member 1 V54E, P25685” reads -0.126 ± 0.15.
In turn, “DnaJ homolog subfamily B member 1 V54F, P25685” gave an abundance fitness of 0.077 ± 0.21.
The result for “DnaJ homolog subfamily B member 1 V54G, P25685” reads -0.322 ± 0.058; that for “DnaJ homolog subfamily B member 1 V54H, P25685”, -0.886 ± 0.19.
In the case of “DnaJ homolog subfamily B member 1 V54I, P25685” it was -0.096 ± 0.12.
As to “DnaJ homolog subfamily B member 1 V54L, P25685”, the abundance fitness was -0.171 ± 0.076.
The result for “DnaJ homolog subfamily B member 1 V54M, P25685” reads -0.084 ± 0.14; that for “DnaJ homolog subfamily B member 1 V54N, P25685”, -0.084 ± 0.11.
For the substance “DnaJ homolog subfamily B member 1 V54P, P25685”, the abundance fitness was -0.699 ± 0.059.
The result for “DnaJ homolog subfamily B member 1 V54Q, P25685” reads -0.423 ± 0.21; that for “DnaJ homolog subfamily B member 1 V54S, P25685”, -0.15 ± 0.076.
In the case of “DnaJ homolog subfamily B member 1 V54T, P25685” it was 0.065 ± 0.12; in that of “DnaJ homolog subfamily B member 1 V54W, P25685”, -0.185 ± 0.16.
The result for “DnaJ homolog subfamily B member 1 V54Y, P25685” reads -0.211 ± 0.27; that for “DnaJ homolog subfamily B member 1 Y5A, P25685”, -0.316 ± 0.13.
As to “DnaJ homolog subfamily B member 1 Y5C, P25685”, the abundance fitness is -0.164 ± 0.18.
For the substance “DnaJ homolog subfamily B member 1 Y5E, P25685”, the abundance fitness was -0.808 ± 0.28.
For the substance “DnaJ homolog subfamily B member 1 Y5F, P25685”, the abundance fitness was -0.449 ± 0.16.
The result for “DnaJ homolog subfamily B member 1 Y5G, P25685” reads -0.672 ± 0.092.
“DnaJ homolog subfamily B member 1 Y5H, P25685” registered an abundance fitness of 0.024 ± 0.068.
The result for “DnaJ homolog subfamily B member 1 Y5I, P25685” reads -0.416 ± 0.21.
Take “DnaJ homolog subfamily B member 1 Y5K, P25685”: the abundance fitness was -0.493 ± 0.15.
The result for “DnaJ homolog subfamily B member 1 Y5L, P25685” reads -0.284 ± 0.14.
In turn, “DnaJ homolog subfamily B member 1 Y5M, P25685” yielded an abundance fitness of -0.179 ± 0.11.
In the case of “DnaJ homolog subfamily B member 1 Y5N, P25685” it was -0.392 ± 0.12.
The result for “DnaJ homolog subfamily B member 1 Y5P, P25685” reads -0.232 ± 0.15; that for “DnaJ homolog subfamily B member 1 Y5Q, P25685”, -0.3 ± 0.15.
In the case of “DnaJ homolog subfamily B member 1 Y5R, P25685” it was -0.52 ± 0.11; in that of “DnaJ homolog subfamily B member 1 Y5S, P25685”, -0.262 ± 0.1.
In turn, “DnaJ homolog subfamily B member 1 Y5T, P25685” displayed an abundance fitness of -0.699 ± 0.24.
The result for “DnaJ homolog subfamily B member 1 Y5V, P25685” reads -1.47 ± 0.2.
The result for “DnaJ homolog subfamily B member 1 Y5W, P25685” reads -0.305 ± 0.22; that for “DnaJ homolog subfamily B member 1 Y6A, P25685”, -0.991 ± 0.18.
In the case of “DnaJ homolog subfamily B member 1 Y6C, P25685” it was -0.863 ± 0.22; in that of “DnaJ homolog subfamily B member 1 Y6D, P25685”, -0.747 ± 0.16.
On to “DnaJ homolog subfamily B member 1 Y6E, P25685”, for which the abundance fitness was -0.683 ± 0.097.
The result for “DnaJ homolog subfamily B member 1 Y6F, P25685” reads -0.162 ± 0.16; that for “DnaJ homolog subfamily B member 1 Y6G, P25685”, -0.977 ± 0.2.
In turn, “DnaJ homolog subfamily B member 1 Y6K, P25685” returned an abundance fitness of -0.911 ± 0.15.
The result for “DnaJ homolog subfamily B member 1 Y6M, P25685” reads -0.806 ± 0.11.
For “DnaJ homolog subfamily B member 1 Y6N, P25685”, the abundance fitness was -0.523 ± 0.13.
“DnaJ homolog subfamily B member 1 Y6P, P25685”: the abundance fitness was -0.589 ± 0.2.
As to “DnaJ homolog subfamily B member 1 Y6Q, P25685”, the abundance fitness was -0.742 ± 0.13.
In the case of “DnaJ homolog subfamily B member 1 Y6R, P25685” it was -0.986 ± 0.1; in that of “DnaJ homolog subfamily B member 1 Y6S, P25685”, -0.817 ± 0.072.
Substance “DnaJ homolog subfamily B member 1 Y6T, P25685” displayed an abundance fitness of -0.557 ± 0.11.
In the case of “DnaJ homolog subfamily B member 1 Y6V, P25685” it was -1.18 ± 0.086.
